In publication PMC10646045:

Legend:
Test in all cases: nanopore single-molecule
[1] = system: HCoV-OC43 nucleocapsid protein (HCoV-OC43); details: 20 nM protein, 200 pM probe; SPR: DPBS running buffer, temperature not stated; nanopore: 2 M LiCl, 5 mM MgCl2, 10 mM Tris-HCl, 1 mM EDTA, pH 8, 300 mV, about 2 h incubation
[2] = system: HCoV-229E nucleocapsid protein (HCoV-229E); details: 20 nM protein, 200 pM probe; SPR: DPBS running buffer, temperature not stated; nanopore: 2 M LiCl, 5 mM MgCl2, 10 mM Tris-HCl, 1 mM EDTA, pH 8, 300 mV, about 2 h incubation
[3] = biological target: SARS-CoV-2 nucleocapsid protein (SARS-CoV-2) (UniProt P0DTC9)
[4] = system: HCoV-NL63 spike protein (HCoV-NL63); details: 200 nM protein, 200 pM probe; SPR: DPBS running buffer, temperature not stated; nanopore: 2 M LiCl, 5 mM MgCl2, 10 mM Tris-HCl, 1 mM EDTA, pH 8, 300 mV, about 2 h incubation
[5] = biological target: SARS-CoV-2 spike protein S1 region (SARS-CoV-2) (UniProt P0DTC2)
[6] = system: spike protein from lysed SARS-CoV-2 pseudovirus (SARS-CoV-2)
[7] = system: HCoV-OC43 spike protein (HCoV-OC43); details: 200 nM protein, 200 pM probe; SPR: DPBS running buffer, temperature not stated; nanopore: 2 M LiCl, 5 mM MgCl2, 10 mM Tris-HCl, 1 mM EDTA, pH 8, 300 mV, about 2 h incubation

Row | Substance | binding signal (% bound events) [1] | binding signal (% bound events) [2] | binding signal (% bound events) [3] | binding signal (% bound events) [4] | binding signal (% bound events) [5] | binding signal (% bound events) [6] | binding signal (% bound events) [7]
1 | NBA centre-labelled 10 kbp molecular probe | 0.83 | 0.31 | 5.71 |  |  |  | 
2 | SBA end-labelled 10 kbp molecular probe |  |  |  | 0.02 | 9.82 | 0.6 | 0.5
